The source of these data is patent publication US11167048B2, “Dual targeting ligand for cancer diagnosis and treatment” (priority 2018, dated 2021).

In one series the target is T1, GRPR (Homo sapiens, UniProt P30550).
T1 construct: endogenous in cells; host or cells: PC-3 human prostate cancer cells (intact cells)
The series is described as follows: Competitive displacement binding assay in GRPR-positive PC-3 cells with [^125I-(Tyr4)-BBN]. The conditions noted are these: radioligand [^125I-(Tyr4)-BBN], 1 h, 37° C., read-out: IC50 PC3 cells. The procedure:
(§1) (NAAG) as the radioligands. […] After incubation, the reaction medium was aspirated and the cells were rinsed three times with cold media. Cell-associated radioactivity was determined using a Packard Riastar gamma counter. […] The enzymatic reaction was stopped by addition of 50 μL of cold sodium phosphate buffer (0.1 M, pH=7.4). […] Scintillation cocktail was added to each fraction and the amount of radioactivity in each was determined by liquid scintillation counting.
(§2) (NAAG) as the radioligands. […] After incubation, the reaction medium was aspirated and the cells were rinsed three times with cold media. Cell-associated radioactivity was determined using a Packard Riastar gamma counter. […] For the PSMA-positive assay, the binding affinity was measured using the N-acetylated-α-linked acidic dipeptidase (NAALADase) assay. […] The enzymatic reaction was stopped by addition of 50 μL of cold sodium phosphate buffer (0.1 M, pH=7.4). […] Columns were pre-equilibrated with 0.2 M HCl prior to loading of the reaction mixture. […] Scintillation cocktail was added to each fraction and the amount of radioactivity in each was determined by liquid scintillation counting.

In the next series the target is T2, PSMA (Homo sapiens, UniProt Q04609).
T2 construct: endogenous in cells; host or cells: LNCaP human prostate cancer cells, homogenized cell membranes
Put plainly: NAALADase assay with LNCaP homogenized cell membranes and [N-acetyl aspartyl ^3H-glutamate]. Type of series: binding. As to conditions: LNCaP homogenized cell membranes, read-out: IC50 LNCaP cells. As for the experimental part:
as §1, §2

Series [1] is described as follows: in vivo. Also on record: species or system CF-1 normal mice. The conditions noted are these: CF-1, mouse, iv, total radioactivity.
Series [2] can be described thus: in vivo. Also on record: species or system ICR-SCID male mice. As to conditions: male, ICR-SCID, mouse, iv, total radioactivity, Pancreas uptake.
Series [3] in a line: in vivo. As to conditions: male, ICR-SCID, mouse, iv, total radioactivity, Brain uptake. Also on record: species or system ICR-SCID male mice.
Another series relates to prostate tumors. The conditions noted are these: newly diagnosed PCa patients; cited from earlier work.
Another series relates to metastatic disease. The conditions noted are these: ^68Ga-labeled agent; cited from earlier work.

T2 sequence (Q04609 whole entry): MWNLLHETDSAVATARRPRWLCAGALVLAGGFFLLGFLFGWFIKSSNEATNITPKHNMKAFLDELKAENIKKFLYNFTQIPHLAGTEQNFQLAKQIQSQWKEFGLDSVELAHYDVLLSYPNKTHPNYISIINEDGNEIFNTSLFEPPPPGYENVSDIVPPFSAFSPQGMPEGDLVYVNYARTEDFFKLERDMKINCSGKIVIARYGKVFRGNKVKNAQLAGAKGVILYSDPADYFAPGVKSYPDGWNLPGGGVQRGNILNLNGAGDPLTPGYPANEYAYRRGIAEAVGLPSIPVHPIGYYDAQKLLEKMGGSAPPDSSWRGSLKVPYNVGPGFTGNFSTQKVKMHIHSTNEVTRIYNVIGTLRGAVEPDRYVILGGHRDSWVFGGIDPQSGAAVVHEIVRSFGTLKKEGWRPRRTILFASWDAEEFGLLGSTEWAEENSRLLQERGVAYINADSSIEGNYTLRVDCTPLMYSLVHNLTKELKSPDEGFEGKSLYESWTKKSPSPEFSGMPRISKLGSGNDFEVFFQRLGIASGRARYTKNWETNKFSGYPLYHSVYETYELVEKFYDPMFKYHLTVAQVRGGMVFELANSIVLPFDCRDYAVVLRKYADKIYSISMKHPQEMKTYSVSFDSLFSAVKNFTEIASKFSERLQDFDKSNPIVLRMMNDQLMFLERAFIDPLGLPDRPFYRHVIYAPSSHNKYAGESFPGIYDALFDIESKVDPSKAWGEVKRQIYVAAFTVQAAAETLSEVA
T1 sequence (P30550 whole entry): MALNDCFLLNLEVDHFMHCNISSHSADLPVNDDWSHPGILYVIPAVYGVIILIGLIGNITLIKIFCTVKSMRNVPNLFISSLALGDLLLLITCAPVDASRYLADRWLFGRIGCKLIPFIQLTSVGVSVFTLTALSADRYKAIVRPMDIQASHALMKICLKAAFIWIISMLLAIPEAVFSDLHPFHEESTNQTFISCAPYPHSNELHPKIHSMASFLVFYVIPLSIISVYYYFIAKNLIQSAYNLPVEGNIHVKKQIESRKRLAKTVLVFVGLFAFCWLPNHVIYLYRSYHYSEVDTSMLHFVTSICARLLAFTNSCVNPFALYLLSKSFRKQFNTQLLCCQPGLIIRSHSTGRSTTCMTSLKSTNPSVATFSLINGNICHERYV

[DUPA-6-Ahx-Lys(M-DOTA)-6-Ahx-RM2]: the IC50 at GRPR was 3.99 ± 1.8 nM; at PSMA it was 9.3 ± 2.32 nM.

Turning to `CC(C)C[C@H](NC(=O)C[C@H](O)[C@H](CC(C)C)NC(=O)[C@H](Cc1c[nH]cn1)NC(=O)CNC(=O)[C@@H](NC(=O)[C@H](C)NC(=O)[C@H](Cc1c[nH]c2ccccc12)NC(=O)[C@H](CCC(N)=O)NC(=O)[C@@H](Cc1ccccc1)NC(=O)CCCCCCCNC(=O)[C@H](CCCCNC(=O)CN1CCN(CC(=O)O)CCN(CC(=O)O)CCN(CC(=O)O)CC1)NC(=O)CCCCCNC(=O)CC[C@H](NC(=O)N[C@@H](CCC(=O)O)C(=O)O)C(=O)O)C(C)C)C(N)=O` [[DUPA-6-Ahx-[^natLu-DOTA]-8-Aoc-RM2]] [metal not drawn], the IC50 at PSMA amounted to 16 ± 2.79 nM.

As for `CC(C)C[C@H](NC(=O)C[C@H](O)[C@H](CC(C)C)NC(=O)[C@H](Cc1c[nH]cn1)NC(=O)CNC(=O)[C@@H](NC(=O)[C@H](C)NC(=O)[C@H](Cc1c[nH]c2ccccc12)NC(=O)[C@H](CCC(N)=O)NC(=O)[C@@H](Cc1ccccc1)NC(=O)c1ccc(NC(=O)[C@H](CCCCNC(=O)CN2CCN(CC(=O)O)CCN(CC(=O)O)CCN(CC(=O)O)CC2)NC(=O)CCCCCNC(=O)CC[C@H](NC(=O)N[C@@H](CCC(=O)O)C(=O)O)C(=O)O)cc1)C(C)C)C(N)=O` [DUPA-6-Ahx-Lys(^111In-DOTA)-AMBA-RM2, metal not drawn], the tissue uptake at 1 h in the series “in vivo [1]” (Bone uptake) turned out to be 0.06 ± 0.04 %ID/g; in “in vivo [1]” (Brain uptake) it was 0.02 ± 0.01 %ID/g; in “in vivo [1]” (Heart uptake), 0.12 ± 0.05 %ID/g; in “in vivo [1]” (Kidneys uptake), 1.37 ± 0.31 %ID/g; in the series “in vivo [1]” (L. Intestine uptake) it was 0.09 ± 0.02 %ID/g; in “in vivo [1]” (Liver uptake), 0.28 ± 0.04 %ID/g. For the same molecule, the tissue uptake at 1 h in the series “in vivo [1]” (Lung uptake) came out at 1.01 ± 1.15 %ID/g; in “in vivo [1]” (Muscle uptake), 0.08 ± 0.02 %ID/g; in “in vivo [1]” (Pancreas uptake), 0.24 ± 0.06 %ID/g; in the series “in vivo [1]” (S. Intestine uptake), 0.2 ± 0.04 %ID/g; in “in vivo [1]” (Spleen uptake), 0.15 ± 0.04 %ID/g; in the series “in vivo [1]” (Stomach uptake), 0.15 ± 0.06 %ID/g.

Regarding `CC(C)C[C@H](NC(=O)C[C@H](O)[C@H](CC(C)C)NC(=O)[C@H](Cc1c[nH]cn1)NC(=O)CNC(=O)[C@@H](NC(=O)[C@H](C)NC(=O)[C@H](Cc1c[nH]c2ccccc12)NC(=O)[C@H](CCC(N)=O)NC(=O)[C@@H](Cc1ccccc1)NC(=O)CCCCCNC(=O)[C@H](CCCCNC(=O)CN1CCN(CC(=O)O)CCN(CC(=O)O)CCN(CC(=O)O)CC1)NC(=O)CCCCCNC(=O)CC[C@H](NC(=O)N[C@@H](CCC(=O)O)C(=O)O)C(=O)O)C(C)C)C(N)=O` [[DUPA-6-Ahx-[^natLu-DOTA]-6-Ahx-RM2]] [metal not drawn], the IC50 at PSMA was determined as 13.9 ± 2.53 nM.

Turning to `CC(C)C[C@H](NC(=O)C[C@H](O)[C@H](CC(C)C)NC(=O)[C@H](Cc1c[nH]cn1)NC(=O)CNC(=O)[C@@H](NC(=O)[C@H](C)NC(=O)[C@H](Cc1c[nH]c2ccccc12)NC(=O)[C@H](CCC(N)=O)NC(=O)[C@@H](Cc1ccccc1)NC(=O)CCCCCCCNC(=O)[C@H](CCCCNC(=O)CN1CCN(CC(=O)O)CCN(CC(=O)O)CCN(CC(=O)O)CC1)NC(=O)CCCCCNC(=O)CC[C@H](NC(=O)N[C@@H](CCC(=O)O)C(=O)O)C(=O)O)C(C)C)C(N)=O` [DUPA-6-Ahx-Lys(^111In-DOTA)-8-Aoc-RM2, metal not drawn], the tissue uptake at 1 h is 0.14 ± 0.04 %ID/g in the series “in vivo [1]” (Bone uptake); 0.02 %ID/g in the series “in vivo [1]” (Brain uptake); 0.2 ± 0.14 %ID/g in “in vivo [1]” (Heart uptake); 1.37 ± 0.31 %ID/g in “in vivo [1]” (Kidneys uptake); 0.49 ± 0.25 %ID/g in “in vivo [1]” (L. Intestine uptake); 0.38 ± 0.04 %ID/g in “in vivo [1]” (Liver uptake). Also, the tissue uptake at 1 h turned out to be 0.37 ± 0.03 %ID/g in “in vivo [1]” (Lung uptake); 0.1 ± 0.01 %ID/g in the series “in vivo [1]” (Muscle uptake); 5.45 ± 0.47 %ID/g in “in vivo [1]” (Pancreas uptake); 0.49 ± 0.34 %ID/g in “in vivo [1]” (Spleen uptake); 1.73 ± 2.49 %ID/g in the series “in vivo [1]” (Stomach uptake). Besides, in “in vivo [2]”, the tissue uptake at 4 h worked out at 0.58 ± 0.1 %ID/g. In addition, the tissue uptake at 24 h in “in vivo [3]” is 0.01 %ID/g.

Turning to `CC(C)C[C@H](NC(=O)C[C@H](O)[C@H](CC(C)C)NC(=O)[C@H](Cc1c[nH]cn1)NC(=O)CNC(=O)[C@@H](NC(=O)[C@H](C)NC(=O)[C@H](Cc1c[nH]c2ccccc12)NC(=O)[C@H](CCC(N)=O)NC(=O)[C@@H](Cc1ccccc1)NC(=O)CCCCCNC(=O)[C@H](CCCCNC(=O)CN1CCN(CC(=O)O)CCN(CC(=O)O)CCN(CC(=O)O)CC1)NC(=O)CCCCCNC(=O)CC[C@H](NC(=O)N[C@@H](CCC(=O)O)C(=O)O)C(=O)O)C(C)C)C(N)=O` [DUPA-6-Ahx-Lys(^111In-DOTA)-6-Ahx-RM2, metal not drawn], the tissue uptake at 1 h amounted to 0.08 ± 0.06 %ID/g in “in vivo [1]” (Bone uptake); 0.03 ± 0.04 %ID/g in “in vivo [1]” (Brain uptake); 0.16 ± 0.22 %ID/g in “in vivo [1]” (Heart uptake); 2.84 ± 0.64 %ID/g in “in vivo [1]” (Kidneys uptake); 0.14 ± 0.12 %ID/g in the series “in vivo [1]” (L. Intestine uptake); 0.23 ± 0.14 %ID/g in the series “in vivo [1]” (Liver uptake). Further, the tissue uptake at 1 h in the series “in vivo [1]” (Lung uptake) was found to be 0.86 ± 0.7 %ID/g; in the series “in vivo [1]” (Muscle uptake), 0.07 ± 0.07 %ID/g; in the series “in vivo [1]” (Pancreas uptake), 0.19 ± 0.19 %ID/g; in the series “in vivo [1]” (S. Intestine uptake), 0.22 ± 0.13 %ID/g; in the series “in vivo [1]” (Spleen uptake), 0.12 ± 0.13 %ID/g; in the series “in vivo [1]” (Stomach uptake), 0.14 ± 0.11 %ID/g.

On to ^64Cu-CB-TE2A-AR06, for which the “High contrast imaging of prostate tumors, fraction of men” value with prostate tumors was “¾”.

As for “DOTA-p-aminomethylaniline-diglycolic acid-DPhe-Gln-Trp-Ala-Val-Gly-His-Leu-NHEt (FQWAVGHL; DOTA-p-aminomethylaniline-diglycolic acid N-term, C-terminal NHEt; (1)..(1) D-phenylalanine; (1)..(1) DOTA-p-aminomethylaniline-diglycolic acid linked to D-Phenylalanine) [SB3]”, in the series on metastatic disease, the “Metastatic disease detected, fraction of patients” value is 5/9.

For `CC(C)C[C@H](NC(=O)C[C@H](O)[C@H](CC(C)C)NC(=O)[C@H](Cc1c[nH]cn1)NC(=O)CNC(=O)[C@@H](NC(=O)[C@H](C)NC(=O)[C@H](Cc1c[nH]c2ccccc12)NC(=O)[C@H](CCC(N)=O)NC(=O)[C@@H](Cc1ccccc1)NC(=O)CCCCNC(=O)[C@H](CCCCNC(=O)CN1CCN(CC(=O)O)CCN(CC(=O)O)CCN(CC(=O)O)CC1)NC(=O)CCCCCNC(=O)CC[C@H](NC(=O)N[C@@H](CCC(=O)O)C(=O)O)C(=O)O)C(C)C)C(N)=O` [DUPA-6-Ahx-Lys(^111In-DOTA)-5-Ava-RM2, metal not drawn], the tissue uptake at 1 h in “in vivo [1]” (Bone uptake) turned out to be 0.09 ± 0.06 %ID/g; in the series “in vivo [1]” (Brain uptake), 0.02 ± 0.01 %ID/g; in the series “in vivo [1]” (Heart uptake) it was 0.11 ± 0.06 %ID/g; in the series “in vivo [1]” (Kidneys uptake) it was 4.92 ± 0.84 %ID/g; in the series “in vivo [1]” (L. Intestine uptake), 0.12 ± 0.05 %ID/g; in “in vivo [1]” (Liver uptake), 0.15 ± 0.05 %ID/g. The tissue uptake at 1 h worked out at 0.68 ± 0.25 %ID/g in “in vivo [1]” (Lung uptake); 0.06 ± 0.04 %ID/g in the series “in vivo [1]” (Muscle uptake); 1.02 ± 0.37 %ID/g in “in vivo [1]” (Pancreas uptake); 0.26 ± 0.09 %ID/g in the series “in vivo [1]” (S. Intestine uptake); 0.13 ± 0.05 %ID/g in the series “in vivo [1]” (Spleen uptake); 0.23 ± 0.18 %ID/g in “in vivo [1]” (Stomach uptake).

The IC50 is the concentration that gives 50% inhibition. A word on the tissue uptake: it is the share of the injected amount in each gram of the tissue.
